Assay results from patent US20140087995A1 (published 2014).
Numbered stars: 1 amine (or outer) side, 2 acyl side, 3 side chain; on linkers, the order of the positions; unused ones are H or OH. Bridge positions count the residues as written; N and C are the ends. Side chains are listed from the residue outwards. Ends that are not written are not given here. * marks the point of attachment. C20 diacid = O=C(O)CCCCCCCCCCCCCCCCCCC(=O)*; γGlu = O=C(O)[C@H](CCC(=O)[*:2])N[*:1]; AEEA = NCCOCCOCC(=O)O

B1: N^ε1-[2-[2-[2-[[(4S)-4-carboxy-4-(19-carboxynonadecanoylamino)butanoyl]amino]ethoxy]ethoxy]acetyl]-[His14,Arg17,Pro21,Pro27]-h-amylin (peptide)
peptide: K([AEEA-γGlu-C20 diacid])CNTATCATQRLAHFLRHSSPNFGAIPSSTNVGSNTY-NH2
modifications: disulfide 2-7; N-terminus assumed
SMILES: CC[C@H](C)[C@H](NC(=O)[C@H](C)NC(=O)CNC(=O)[C@H](Cc1ccccc1)NC(=O)[C@H](CC(N)=O)NC(=O)[C@@H]1CCCN1C(=O)[C@H](CO)NC(=O)[C@H](CO)NC(=O)[C@H](Cc1c[nH]cn1)NC(=O)[C@H](CCCNC(=N)N)NC(=O)[C@H](CC(C)C)NC(=O)[C@H](Cc1ccccc1)NC(=O)[C@H](Cc1c[nH]cn1)NC(=O)[C@H](C)NC(=O)[C@H](CC(C)C)NC(=O)[C@H](CCCNC(=N)N)NC(=O)[C@H](CCC(N)=O)NC(=O)[C@@H](NC(=O)[C@H](C)NC(=O)[C@@H]1CSSC[C@H](NC(=O)[C@@H](N)CCCCNC(=O)COCCOCCNC(=O)CC[C@H](NC(=O)CCCCCCCCCCCCCCCCCCC(=O)O)C(=O)O)C(=O)N[C@@H](CC(N)=O)C(=O)N[C@@H]([C@@H](C)O)C(=O)N[C@@H](C)C(=O)N[C@@H]([C@@H](C)O)C(=O)N1)[C@@H](C)O)C(=O)N1CCC[C@H]1C(=O)N[C@@H](CO)C(=O)N[C@@H](CO)C(=O)N[C@H](C(=O)N[C@@H](CC(N)=O)C(=O)N[C@H](C(=O)NCC(=O)N[C@@H](CO)C(=O)N[C@@H](CC(N)=O)C(=O)N[C@H](C(=O)N[C@@H](Cc1ccc(O)cc1)C(N)=O)[C@@H](C)O)C(C)C)[C@@H](C)O
notes: also called compound 69
B2: N^ε1-[2-[2-[2-(19-carboxynonadecanoylamino)ethoxy]ethoxy]acetyl]-[Arg17,Pro21,Pro27,His34]-h-amylin (peptide)
peptide: K([AEEA-C20 diacid])CNTATCATQRLANFLRHSSPNFGAIPSSTNVGHNTY-NH2
modifications: disulfide 2-7; N-terminus assumed
SMILES: CC[C@H](C)[C@H](NC(=O)[C@H](C)NC(=O)CNC(=O)[C@H](Cc1ccccc1)NC(=O)[C@H](CC(N)=O)NC(=O)[C@@H]1CCCN1C(=O)[C@H](CO)NC(=O)[C@H](CO)NC(=O)[C@H](Cc1c[nH]cn1)NC(=O)[C@H](CCCNC(=N)N)NC(=O)[C@H](CC(C)C)NC(=O)[C@H](Cc1ccccc1)NC(=O)[C@H](CC(N)=O)NC(=O)[C@H](C)NC(=O)[C@H](CC(C)C)NC(=O)[C@H](CCCNC(=N)N)NC(=O)[C@H](CCC(N)=O)NC(=O)[C@@H](NC(=O)[C@H](C)NC(=O)[C@@H]1CSSC[C@H](NC(=O)[C@@H](N)CCCCNC(=O)COCCOCCNC(=O)CCCCCCCCCCCCCCCCCCC(=O)O)C(=O)N[C@@H](CC(N)=O)C(=O)N[C@@H]([C@@H](C)O)C(=O)N[C@@H](C)C(=O)N[C@@H]([C@@H](C)O)C(=O)N1)[C@@H](C)O)C(=O)N1CCC[C@H]1C(=O)N[C@@H](CO)C(=O)N[C@@H](CO)C(=O)N[C@H](C(=O)N[C@@H](CC(N)=O)C(=O)N[C@H](C(=O)NCC(=O)N[C@@H](Cc1c[nH]cn1)C(=O)N[C@@H](CC(N)=O)C(=O)N[C@H](C(=O)N[C@@H](Cc1ccc(O)cc1)C(N)=O)[C@@H](C)O)C(C)C)[C@@H](C)O
notes: also called compound 91
B3: N^ε1-[2-[2-[2-[[2-[2-[2-[[(4S)-4-carboxy-4-(19-carboxynonadecanoylamino)butanoyl]amino]ethoxy]ethoxy]acetyl]amino]ethoxy]ethoxy]acetyl]-[Arg17,Pro21,Pro27,Arg34 … (peptide)
peptide: K([AEEA-AEEA-γGlu-C20 diacid])CNTATCATQRLANFLRHSSPNFGAIPSSTNVGRNTY-NH2
modifications: disulfide 2-7; N-terminus assumed
SMILES: CC[C@H](C)[C@H](NC(=O)[C@H](C)NC(=O)CNC(=O)[C@H](Cc1ccccc1)NC(=O)[C@H](CC(N)=O)NC(=O)[C@@H]1CCCN1C(=O)[C@H](CO)NC(=O)[C@H](CO)NC(=O)[C@H](Cc1c[nH]cn1)NC(=O)[C@H](CCCNC(=N)N)NC(=O)[C@H](CC(C)C)NC(=O)[C@H](Cc1ccccc1)NC(=O)[C@H](CC(N)=O)NC(=O)[C@H](C)NC(=O)[C@H](CC(C)C)NC(=O)[C@H](CCCNC(=N)N)NC(=O)[C@H](CCC(N)=O)NC(=O)[C@@H](NC(=O)[C@H](C)NC(=O)[C@@H]1CSSC[C@H](NC(=O)[C@@H](N)CCCCNC(=O)COCCOCCNC(=O)COCCOCCNC(=O)CC[C@H](NC(=O)CCCCCCCCCCCCCCCCCCC(=O)O)C(=O)O)C(=O)N[C@@H](CC(N)=O)C(=O)N[C@@H]([C@@H](C)O)C(=O)N[C@@H](C)C(=O)N[C@@H]([C@@H](C)O)C(=O)N1)[C@@H](C)O)C(=O)N1CCC[C@H]1C(=O)N[C@@H](CO)C(=O)N[C@@H](CO)C(=O)N[C@H](C(=O)N[C@@H](CC(N)=O)C(=O)N[C@H](C(=O)NCC(=O)N[C@@H](CCCNC(=N)N)C(=O)N[C@@H](CC(N)=O)C(=O)N[C@H](C(=O)N[C@@H](Cc1ccc(O)cc1)C(N)=O)[C@@H](C)O)C(C)C)[C@@H](C)O
notes: also called compound 95
B4: N^ε1-[2-[2-[2-[[2-[2-[2-[[(4S)-4-carboxy-4-(19-carboxynonadecanoylamino)butanoyl]amino]ethoxy]ethoxy]acetyl]amino]ethoxy]ethoxy]acetyl]-[Arg17,Pro21,Pro27,Pro31 … (peptide)
peptide: K([AEEA-AEEA-γGlu-C20 diacid])CNTATCATQRLANFLRHSSPNFGAIPSSTPVGSNTY-NH2
modifications: disulfide 2-7; N-terminus assumed
SMILES: CC[C@H](C)[C@H](NC(=O)[C@H](C)NC(=O)CNC(=O)[C@H](Cc1ccccc1)NC(=O)[C@H](CC(N)=O)NC(=O)[C@@H]1CCCN1C(=O)[C@H](CO)NC(=O)[C@H](CO)NC(=O)[C@H](Cc1c[nH]cn1)NC(=O)[C@H](CCCNC(=N)N)NC(=O)[C@H](CC(C)C)NC(=O)[C@H](Cc1ccccc1)NC(=O)[C@H](CC(N)=O)NC(=O)[C@H](C)NC(=O)[C@H](CC(C)C)NC(=O)[C@H](CCCNC(=N)N)NC(=O)[C@H](CCC(N)=O)NC(=O)[C@@H](NC(=O)[C@H](C)NC(=O)[C@@H]1CSSC[C@H](NC(=O)[C@@H](N)CCCCNC(=O)COCCOCCNC(=O)COCCOCCNC(=O)CC[C@H](NC(=O)CCCCCCCCCCCCCCCCCCC(=O)O)C(=O)O)C(=O)N[C@@H](CC(N)=O)C(=O)N[C@@H]([C@@H](C)O)C(=O)N[C@@H](C)C(=O)N[C@@H]([C@@H](C)O)C(=O)N1)[C@@H](C)O)C(=O)N1CCC[C@H]1C(=O)N[C@@H](CO)C(=O)N[C@@H](CO)C(=O)N[C@H](C(=O)N1CCC[C@H]1C(=O)N[C@H](C(=O)NCC(=O)N[C@@H](CO)C(=O)N[C@@H](CC(N)=O)C(=O)N[C@H](C(=O)N[C@@H](Cc1ccc(O)cc1)C(N)=O)[C@@H](C)O)C(C)C)[C@@H](C)O
notes: also called compound 96
B5: N^ε-[2-[2-[2-[[(4S)-4-carboxy-4-(19-carboxynonadecanoylamino)butanoyl]amino]ethoxy]ethoxy]acetyl]Lys[Arg1,Arg17,Pro21,Pro27,His35]-h-amylin (peptide)
peptide: K([AEEA-γGlu-C20 diacid])RCNTATCATQRLANFLRHSSPNFGAIPSSTNVGSHTY-NH2
modifications: disulfide 3-8; N-terminus assumed
SMILES: CC[C@H](C)[C@H](NC(=O)[C@H](C)NC(=O)CNC(=O)[C@H](Cc1ccccc1)NC(=O)[C@H](CC(N)=O)NC(=O)[C@@H]1CCCN1C(=O)[C@H](CO)NC(=O)[C@H](CO)NC(=O)[C@H](Cc1c[nH]cn1)NC(=O)[C@H](CCCNC(=N)N)NC(=O)[C@H](CC(C)C)NC(=O)[C@H](Cc1ccccc1)NC(=O)[C@H](CC(N)=O)NC(=O)[C@H](C)NC(=O)[C@H](CC(C)C)NC(=O)[C@H](CCCNC(=N)N)NC(=O)[C@H](CCC(N)=O)NC(=O)[C@@H](NC(=O)[C@H](C)NC(=O)[C@@H]1CSSC[C@H](NC(=O)[C@H](CCCNC(=N)N)NC(=O)[C@@H](N)CCCCNC(=O)COCCOCCNC(=O)CC[C@H](NC(=O)CCCCCCCCCCCCCCCCCCC(=O)O)C(=O)O)C(=O)N[C@@H](CC(N)=O)C(=O)N[C@@H]([C@@H](C)O)C(=O)N[C@@H](C)C(=O)N[C@@H]([C@@H](C)O)C(=O)N1)[C@@H](C)O)C(=O)N1CCC[C@H]1C(=O)N[C@@H](CO)C(=O)N[C@@H](CO)C(=O)N[C@H](C(=O)N[C@@H](CC(N)=O)C(=O)N[C@H](C(=O)NCC(=O)N[C@@H](CO)C(=O)N[C@@H](Cc1c[nH]cn1)C(=O)N[C@H](C(=O)N[C@@H](Cc1ccc(O)cc1)C(N)=O)[C@@H](C)O)C(C)C)[C@@H](C)O
notes: extended by one residue at the N-terminus; also called compound 45

What was measured:
[1] = molecular target: T1, human amylin receptor (amylin 3(a) receptor: human calcitonin receptor co-expressed with RAMP-3) (human, UniProt P30988 25-474; O60896 24-148, limits assumed); assay: cell-based or functional assay
T1 sequence (looked up) 1: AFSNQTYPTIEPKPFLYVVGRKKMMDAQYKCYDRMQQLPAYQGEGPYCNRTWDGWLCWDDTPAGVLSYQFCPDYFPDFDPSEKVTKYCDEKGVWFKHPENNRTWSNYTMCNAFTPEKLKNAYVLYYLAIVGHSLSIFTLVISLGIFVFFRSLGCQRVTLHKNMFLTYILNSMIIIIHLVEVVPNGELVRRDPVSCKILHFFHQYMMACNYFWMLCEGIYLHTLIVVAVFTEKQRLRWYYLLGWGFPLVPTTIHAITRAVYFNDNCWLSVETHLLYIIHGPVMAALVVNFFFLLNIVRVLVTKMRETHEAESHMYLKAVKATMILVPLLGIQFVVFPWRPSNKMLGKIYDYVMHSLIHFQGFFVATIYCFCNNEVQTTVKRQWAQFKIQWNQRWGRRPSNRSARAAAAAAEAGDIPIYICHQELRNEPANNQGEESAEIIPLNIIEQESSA
T1 sequence (looked up) 2: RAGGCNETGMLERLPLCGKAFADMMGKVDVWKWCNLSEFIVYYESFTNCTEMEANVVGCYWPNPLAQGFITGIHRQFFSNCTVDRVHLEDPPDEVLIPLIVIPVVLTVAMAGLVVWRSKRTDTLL

[2] = molecular target: T2, human calcitonin receptor (human, UniProt P30988 25-474); assay: cell-based or functional assay
T2 sequence (looked up): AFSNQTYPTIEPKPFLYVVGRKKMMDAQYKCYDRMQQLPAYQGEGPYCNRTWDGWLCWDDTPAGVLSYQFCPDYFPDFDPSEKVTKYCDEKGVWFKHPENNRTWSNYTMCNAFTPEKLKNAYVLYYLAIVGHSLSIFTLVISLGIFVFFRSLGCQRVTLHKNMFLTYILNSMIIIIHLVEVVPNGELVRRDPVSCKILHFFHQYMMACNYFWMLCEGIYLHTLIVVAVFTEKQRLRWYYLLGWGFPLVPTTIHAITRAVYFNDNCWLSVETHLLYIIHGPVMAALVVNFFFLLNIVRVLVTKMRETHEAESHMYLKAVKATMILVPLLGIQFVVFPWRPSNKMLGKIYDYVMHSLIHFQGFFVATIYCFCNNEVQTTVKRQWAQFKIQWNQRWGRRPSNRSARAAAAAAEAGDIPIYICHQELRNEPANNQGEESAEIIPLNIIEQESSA

[3] = molecular target: T3, human calcitonin receptor (human, UniProt P30988 25-474); assay: ratio of IC50 at hCTR to IC50 at the human amylin receptor (reference)
T3 construct: whole, on cells; also called hCTR; hCT
T3 sequence (looked up): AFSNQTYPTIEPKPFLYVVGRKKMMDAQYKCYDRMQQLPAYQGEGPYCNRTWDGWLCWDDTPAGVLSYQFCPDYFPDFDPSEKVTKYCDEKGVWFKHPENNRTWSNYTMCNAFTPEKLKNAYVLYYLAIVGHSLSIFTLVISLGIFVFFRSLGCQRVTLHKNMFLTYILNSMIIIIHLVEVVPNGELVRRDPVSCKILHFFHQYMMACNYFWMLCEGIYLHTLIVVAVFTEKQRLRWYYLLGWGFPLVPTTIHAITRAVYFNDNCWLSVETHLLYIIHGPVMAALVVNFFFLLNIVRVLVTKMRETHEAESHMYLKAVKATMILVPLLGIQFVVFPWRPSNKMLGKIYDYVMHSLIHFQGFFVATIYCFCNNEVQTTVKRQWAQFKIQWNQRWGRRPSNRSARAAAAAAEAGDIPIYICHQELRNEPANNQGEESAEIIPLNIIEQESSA
In short: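 Competition binding by SPA uses membrane preparations (35 ng/μL final) in pH 7.4 Hepes buffer with 1 mM CaCl2 and 5 mM MgCl₂. Incubation lasts 120 min at 25° C, and IC₅₀ comes from one-site fitting.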

[4] = molecular target: T3, human calcitonin receptor; assay: SPA competition binding, membranes with human calcitonin receptor, displacement of 125I-calcitonin (Assay VII)
In short: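 BHK hCTR membranes 35 ng/μL + SPA beads 0.05 mg/well; buffer 50 mM Hepes pH 7.4, 1 mM CaCl2, 5 mM MgCl₂, 0.1% OA, 0.02% Tween20. 120 min, 25° C., shaking. Scintillation count; IC50 by one-site binding competition.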

Binder | hAmylin-R funct. EC50 [1] | hCTR funct. EC50 [2] | Ratio hCT/hAmylin funct. [1] | Ratio hCT/hAmylin binding [3] | IC50 [4]
B1 | 0.094 nM | 1.25 nM | – | – | –
B2 | 0.04 nM | 1.48 nM | 36.9 | – | –
B3 | 0.651 nM | 21.5 nM | – | – | –
B4 | 0.181 nM | 3.8 nM | – | – | –
B5 | – | – | – | 26.8 | 14.8 nM
